In the supplement of paper PMC5998384:

Assays:
HeLa Kyoto [1] = assay: solubility in G1/S (NP-40 vs SDS abundance) (log2 ratio); higher = more soluble; details: cell cycle stage: G1/S
HeLa Kyoto [2] = assay: solubility change mitosis vs G1/S (difference of NP-40 vs SDS log2 ratios) (log2 ratio difference); higher = more soluble in mitosis
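For solubility change mitosis vs G1/S (difference of NP-40 vs SDS log2 ratios) in this document: synchronized HeLa Kyoto cells (double thymidine block for G1/S, nocodazole release for mitosis), protein amounts in NP-40 versus SDS lysates quantified by mass spectrometry, three biological replicates.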
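For solubility in G1/S (NP-40 vs SDS abundance) in this document: HeLa Kyoto cells arrested at G1/S by double thymidine block, proteins quantified by TMT10plex mass spectrometry in mild NP-40 versus SDS extracts, three biological replicates.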

Sequence of LMTK2 (chain, as listed by the source): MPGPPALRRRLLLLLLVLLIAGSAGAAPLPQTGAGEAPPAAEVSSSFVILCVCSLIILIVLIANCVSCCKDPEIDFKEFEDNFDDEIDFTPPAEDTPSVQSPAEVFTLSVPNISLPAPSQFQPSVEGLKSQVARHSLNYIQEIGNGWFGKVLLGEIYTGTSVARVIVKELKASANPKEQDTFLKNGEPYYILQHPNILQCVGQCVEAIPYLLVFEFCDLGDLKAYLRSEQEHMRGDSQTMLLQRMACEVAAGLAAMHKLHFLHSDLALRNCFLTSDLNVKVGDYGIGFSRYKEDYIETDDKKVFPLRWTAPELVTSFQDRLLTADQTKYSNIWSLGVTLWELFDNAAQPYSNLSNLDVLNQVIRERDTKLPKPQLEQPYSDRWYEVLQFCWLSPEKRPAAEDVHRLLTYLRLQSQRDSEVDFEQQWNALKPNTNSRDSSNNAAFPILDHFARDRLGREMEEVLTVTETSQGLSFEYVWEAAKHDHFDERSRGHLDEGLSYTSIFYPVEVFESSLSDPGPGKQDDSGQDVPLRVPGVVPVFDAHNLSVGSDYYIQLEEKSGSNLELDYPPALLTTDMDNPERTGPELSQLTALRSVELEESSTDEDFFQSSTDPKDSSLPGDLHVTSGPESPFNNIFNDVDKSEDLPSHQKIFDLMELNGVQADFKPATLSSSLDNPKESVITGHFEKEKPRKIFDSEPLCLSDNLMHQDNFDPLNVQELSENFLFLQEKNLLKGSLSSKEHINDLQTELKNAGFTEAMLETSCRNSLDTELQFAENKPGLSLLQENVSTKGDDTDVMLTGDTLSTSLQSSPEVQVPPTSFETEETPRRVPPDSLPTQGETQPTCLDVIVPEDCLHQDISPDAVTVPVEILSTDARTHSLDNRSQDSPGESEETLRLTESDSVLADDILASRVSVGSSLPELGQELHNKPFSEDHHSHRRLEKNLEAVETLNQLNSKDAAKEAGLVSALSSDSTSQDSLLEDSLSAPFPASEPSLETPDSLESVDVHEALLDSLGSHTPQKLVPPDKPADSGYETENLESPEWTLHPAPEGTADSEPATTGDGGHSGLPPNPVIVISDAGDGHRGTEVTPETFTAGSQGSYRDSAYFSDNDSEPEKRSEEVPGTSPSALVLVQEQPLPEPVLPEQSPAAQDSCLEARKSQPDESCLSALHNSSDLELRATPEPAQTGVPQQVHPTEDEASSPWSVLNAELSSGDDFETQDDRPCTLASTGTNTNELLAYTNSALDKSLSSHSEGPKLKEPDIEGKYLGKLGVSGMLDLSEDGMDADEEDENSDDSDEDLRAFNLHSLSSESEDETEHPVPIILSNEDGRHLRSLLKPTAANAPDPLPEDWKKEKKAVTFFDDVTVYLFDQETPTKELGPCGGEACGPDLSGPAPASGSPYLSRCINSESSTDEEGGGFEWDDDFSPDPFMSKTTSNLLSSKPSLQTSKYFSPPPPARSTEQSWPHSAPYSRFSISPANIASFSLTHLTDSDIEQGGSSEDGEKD

Substance | solubility in G1/S (log2) (HeLa Kyoto [1]) | solubility change mitosis (log2) (HeLa Kyoto [2])
MEGESSRFEIHTPVSDKKKKKCSIHKERPQKHSHEIFRDSSLVNEQSQITRRKKRKKDFQHLISSPLKKSRICDETANATSTLKKRKKRRYSALEVDEEAGVTVVLVDKENINNTPKHFRKDVDVVCVDMSIEQKLPRKPKTDKFQVLAKSHAHKSEALHSKVREKKNKKHQRKAASWESQRARDTLPQSESHQEESWLSVGPGGEITELPASAHKNKSKKKKKKSSNREYETLAMPEGSQAGREAGTDMQESQPTVGLDDETPQLLGPTHKKKSKKKKKKKSNHQEFEALAMPEGSQVGSEVGADMQESRPAVGLHGETAGIPAPAYKNKSKKKKKKSNHQEFEAVAMPESLESAYPEGSQVGSEVGTVEGSTALKGFKESNSTKKKSKKRKLTSVKRARVSGDDFSVPSKNSESTLFDSVEGDGAMMEEGVKSRPRQKKTQACLASKHVQEAPRLEPANEEHNVETAEDSEIRYLSADSGDADDSDADLGSAVKQLQEFIPNIKDRATSTIKRMYRDDLERFKEFKAQGVAIKFGKFSVKENKQLEKNVEDFLALTGIESADKLLYTDRYPEEKSVITNLKRRYSFRLHIGRNIARPWKLIYYRAKKMFDVNNYKGRYSEGDTEKLKMYHSLLGNDWKTIGEMVARSSLSVALKFSQISSQRNRGAWSKSETRKLIKAVEEVILKKMSPQELKEVDSKLQENPESCLSIVREKLYKGISWVEVEAKVQTRNWMQCKSKWTEILTKRMTNGRRIYYGMNALRAKVSLIERLYEINVEDTNEIDWEDLASAIGDVPPSYVQTKFSRLKAVYVPFWQKKTFPEIIDYLYETTLPLLKEKLEKMMEKKGTKIQTPAAPKQVFPFRDIFYYEDDSEGEDIEKESEGQAPCMAHACNSSTLGGQGRWII [TTF1] | -1.02 | 0.169
MELATRYQIPKEVADIFNAPSDDEEFVGFRDDVPMETLSSEESCDSFDSLESGKQQDVRFHSKYFTEELRRIFIEDTDSETEDFAGFTQSDLNGKTNPEVMVVESDLSDDGKASLVSEEEEDEEEDKATPRRSRSRRSSIGLRVAFQFPTKKLANKPDKNSSSEQLFSSARLQNEKKTILERKKDCRQVIQREDSTSESEDDSRDESQESSDALLKRTMNIKENKAMLAQLLAELNSMPDFFPVRTPTSASRKKTVRRAFSEGQITRRMNPTRSARPPEKFALENFTVSAAKFAEEFYSFRRRKTIGGKCREYRRRHRISSFRPVEDITEEDLENVAITVRDKIYDKVLGNTCHQCRQKTIDTKTVCRNQGCCGVRGQFCGPCLRNRYGEDVRSALLDPDWVCPPCRGICNCSYCRKRDGRCATGILIHLAKFYGYDNVKEYLESLQKELVEDN [CDCA7L] | -0.846 | 0.727
MAETKIIYHMDEEETPYLVKLPVAPERVTLADFKNVLSNRPVHAYKFFFKSMDQDFGVVKEEIFDDNAKLPCFNGRVVSWLVLAEGAHSDAGSQGTDSHTDLPPPLERTGGIGDSRPPSFHPNVASSRDGMDNETGTESMVSHRRERARRRNREEAARTNGHPRGDRRRDVGLPPDSASTALSSELESSSFVDSDEDGSTSRLSSSTEQSTSSRLIRKHKRRRRKQRLRQADRASSFSSITDSTMSLNIVTVTLNMERHHFLGISIVGQSNDRGDGGIYIGSIMKGGAVAADGRIEPGDMLLQVNDVNFENMSNDDAVRVLREIVSQTGPISLTVAKCWDPTPRSYFTVPRADPVRPIDPAAWLSHTAALTGALPRYGTSPCSSAVTRTSSSSLTSSVPGAPQLEEAPLTVKSDMSAVVRVMQLPDSGLEIRDRMWLKITIANAVIGADVVDWLYTHVEGFKERREARKYASSLLKHGFLRHTVNKITFSEQCYYVFGDLCSNLATLNLNSGSSGTSDQDTLAPLPHPAAPWPLGQGYPYQYPGPPPCFPPAYQDPGFSYGSGSTGSQQSEGSKSSGSTRSSRRAPGREKERRAAGAGGSGSESDHTAPSGVGSSWRERPAGQLSRGSSPRSQASATAPGLPPPHPTTKAYTVVGGPPGGPPVRELAAVPPELTGSRQSFQKAMGNPCEFFVDIM [DVL1] | -0.0781 | 0.0447
MQPPPRKVKVTQELKNIQVEQMTKLQAKHQAECDLLEDMRTFSQKKAAIEREYAQGMQKLASQYLKRDWPGVKADDRNDYRSMYPVWKSFLEGTMQVAQSRMNICENYKNFISEPARTVRSLKEQQLKRCVDQLTKIQTELQETVKDLAKGKKKYFETEQMAHAVREKADIEAKSKLSLFQSRISLQKASVKLKARRSECNSKATHARNDYLLTLAAANAHQDRYYQTDLVNIMKALDGNVYDHLKDYLIAFSRTELETCQAVQNTFQFLLENSSKVVRDYNLQLFLQENAVFHKPQPFQFQPCDSDTSRQLESETGTTEEHSLNKEARKWATRVAREHKNIVHQQRVLNDLECHGAAVSEQSRAELEQKIDEARENIRKAEIIKLKAEARLDLLKQIGVSVDTWLKSAMNQVMEELENERWARPPAVTSNGTLHSLNADTEREEGEEFEDNMDVFDDSSSSPSGTLRNYPLTCKVVYSYKASQPDELTIEEHEVLEVIEDGDMEDWVKARNKVGQVGYVPEKYLQFPTSNSLLSMLQSLAALDSRSHTSSNSTEAELVSGSLNGDASVCFVKALYDYEGQTDDELSFPEGAIIRILNKENQDDDGFWEGEFNGRIGVFPSVLVEELSASENGDTPWMREIQISPSPKPHASLPPLPLYDQPPSSPYPSPDKRSSLYFPRSPSANEKSLHAESPGFSQASRHTPETSYGKLRPVRAAPPPPTQNHRRPAEKIEDVEITLV [FCHSD2] | 0.194 | -0.00785
MDEPPFSEAALEQALGEPCDLDAALLTDIEDMLQLINNQDSDFPGLFDPPYAGSGAGGTDPASPDTSSPGSLSPPPATLSSSLEAFLSGPQAAPSPLSPPQPAPTPLKMYPSMPAFSPGPGIKEESVPLSILQTPTPQPLPGALLPQSFPAPAPPQFSSTPVLGYPSPPGGFSTGSPPGNTQQPLPGLPLASPPGVPPVSLHTQVQSVVPQQLLTVTAAPTAAPVTTTVTSQIQQVPVLLQPHFIKADSLLLTAMKTDGATVKAAGLSPLVSGTTVQTGPLPTLVSGGTILATVPLVVDAEKLPINRLAAGSKAPASAQSRGEKRTAHNAIEKRYRSSINDKIIELKDLVVGTEAKLNKSAVLRKAIDYIRFLQHSNQKLKQENLSLRTAVHKSKSLKDLVSACGSGGNTDVLMEGVKTEVEDTLTPPPSDAGSPFQSSPLSLGSRGSGSGGSGSDSEPDSPVFEDSKAKPEQRPSLHSRGMLDRSRLALCTLVFLCLSCNPLASLLGARGLPSPSDTTSVYHSPGRNVLGTESRDGPGWAQWLLPPVVWLLNGLLVLVSLVLLFVYGEPVTRPHSGPAVYFWRHRKQADLDLARGDFAQAAQQLWLALRALGRPLPTSHLDLACSLLWNLIRHLLQRLWVGRWLAGRAGGLQQDCALRVDASASARDAALVYHKLHQLHTMGKHTGGHLTATNLALSALNLAECAGDAVSVATLAEIYVAAALRVKTSLPRALHFLTRFFLSSARQACLAQSGSVPPAMQWLCHPVGHRFFVDGDWSVLSTPWESLYSLAGNPVDPLAQVTQLFREHLLERALNCVTQPNPSPGSADGDKEFSDALGYLQLLNSCSDAAGAPAYSFSISSSMATTTGVDPVAKWWASLTAVVIHWLRRDEEAAERLCPLVEHLPRVLQESERPLPRAALHSFKAARALLGCAKAESGPASLTICEKASGYLQDSLATTPASSSIDKAVQLFLCDLLLVVRTSLWRQQQPPAPAPAAQGTSSRPQASALELRGFQRDLSSLRRLAQSFRPAMRRVFLHEATARLMAGASPTRTHQLLDRSLRRRAGPGGKGGAVAELEPRPTRREHAEALLLASCYLPPGFLSAPGQRVGMLAEAARTLEKLGDRRLLHDCQQMLMRLGGGTTVTSS [SREBF1] | -0.139 | -0.263
OBSL1 | -0.276 | -0.0157
MWMTPKRSKMEVDEALVFRPEWTQRYLVVEPPEGDGALCLVCRRLIVATRERDVRRHYEAEHEYYERYVADGERAALVERLRQGDLPVASFTPEERAARAGLGLCRLLALKGRGWGEGDFVYQCMEVLLREVLPEHVSVLQGVDLSPDITRQRILSIDRNLRNQLFNRARDFKAYSLALDDQAFVAYENYLLVFIRGVGPELEVQEDLLTIINLTHHFSVGALMSAILESLQTAGLSLQRMVGLTTTHTLRMIGENSGLVSYMREKAVSPNCWNVIHYSGFLHLELLSSYDVDVNQIINTISEWIVLIKTRGVRRPEFQTLLTESESEHGERVNGRCLNNWLRRGKTLKLIFSLRKEMEAFLVSVGATTVHFSDKQWLCDFGFLVDIMEHLRELSEELRVSKVFAAAAFDHICTFEVKLNLFQRHIEEKNLTDFPALREVVDELKQQNKEDEKIFDPDRYQMVICRLQKEFERHFKDLRFIKKDLELFSNPFNFKPEYAPISVRVELTKLQANTNLWNEYRIKDLGQFYAGLSAESYPIIKGVACKVASLFDSNQICEKAFSYLTRNQHTLSQPLTDEHLQALFRVATTEMEPGWDDLVRERNESNP [EPM2AIP1] | -0.485 | 0.291
MGPGGPLLSPSRGFLLCKTGWHSNRLLGDCGPHTPVSTALSFIAVGMAAPSMKERQVCWGARDEYWKCLDENLEDASQCKKLRSSFESSCPQQWIKYFDKRRDYLKFKEKFEAGQFEPSETTAKS [COA6] | -0.656 | 0.327
LMTK2 | -0.313 | -0.217
MGLSTVPDLLLPLVLLELLVGIYPSGVIGLVPHLGDREKRDSVCPQGKYIHPQNNSICCTKCHKGTYLYNDCPGPGQDTDCRECESGSFTASENHLRHCLSCSKCRKEMGQVEISSCTVDRDTVCGCRKNQYRHYWSENLFQCFNCSLCLNGTVHLSCQEKQNTVCTCHAGFFLRENECVSCSNCKKSLECTKLCLPQIENVKGTEDSGTTVLLPLVIFFGLCLLSLLFIGLMYRYQRWKSKLYSIVCGKSTPEKEGELEGTTTKPLAPNPSFSPTPGFTPTLGFSPVPSSTFTSSSTYTPGDCPNFAAPRREVAPPYQGADPILATALASDPIPNPLQKWEDSAHKPQSLDTDDPATLYAVVENVPPLRWKEFVRRLGLSDHEIDRLELQNGRCLREAQYSMLATWRRRTPRREATLELLGRVLRDMDLLGCLEDIEEALCGPAALPPAPSLLR [TNFRSF1A] | -0.165 | -0.132
MAGQEDPVQREIHQDWANREYIEIITSSIKKIADFLNSFDMSCRSRLATLNEKLTALERRIEYIEARVTKGETLT [BRK1] | -0.551 | 0.228
MNSGRPETMENLPALYTIFQGEVAMVTDYGAFIKIPGCRKQGLVHRTHMSSCRVDKPSEIVDVGDKVWVKLIGREMKNDRIKVSLSMKVVNQGTGKDLDPNNVIIEQEERRRRSFQDYTGQKITLEAVLNTTCKKCGCKGHFAKDCFMQPGGTKYSLIPDEEEEKEEAKSAEFEKPDPTRNPSRKRKKEKKKKKHRDRKSSDSDSSDSESDTGKRARHTSKDSKAAKKKKKKKKHKKKHKE [ZCCHC17] | -1.32 | 0.661
MAAAAVSSAKRSLRGELKQRLRAMSAEERLRQSRVLSQKVIAHSEYQKSKRISIFLSMQDEIETEEIIKDIFQRGKICFIPRYRFQSNHMDMVRIESPEEISLLPKTSWNIPQPGEGDVREEALSTGGLDLIFMPGLGFDKHGNRLGRGKGYYDAYLKRCLQHQEVKPYTLALAFKEQICLQVPVNENDMKVDEVLYEDSSTA [MTHFS] | 0.146 | 0.0622
